Source: patent US20180155451A1 (published 2018)

T1: FcγRIIb (human, UniProt P31994 43-217)
T1 construct: extracellular domain; also called FcgRIIb; 2b
T1 sequence (looked up): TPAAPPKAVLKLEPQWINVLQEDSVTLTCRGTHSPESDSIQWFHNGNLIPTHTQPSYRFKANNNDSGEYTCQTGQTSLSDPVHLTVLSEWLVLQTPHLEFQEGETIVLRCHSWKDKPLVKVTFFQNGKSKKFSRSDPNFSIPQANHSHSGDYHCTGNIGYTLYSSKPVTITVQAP

B1: GpH7-A5/GpH7-B3 variant (V266_19Q)/GpL16-k0 (antibody, human IgG1, kappa)
heavy 1: not shown
heavy 2: not shown
light: DIVMTQSPLSLPVTPGEPASISCQASESLVHSNRNTYLHWYLQKPGQSPQLLIYKVSNRFSGVPDRFSGSGSGTDFTLKISRVEAEDVGVYYCSQNTHVPPTFGQGTKVEIERTVAAPSVFIFPPSDEQLKSGTASVVCLLNNFYPREAKVQWKVDNALQSGNSQESVTEQDSKDSTYSLSSTLTLSKADYEKHKVYACEVTHQGLSSPVTKSFNRGEC
notes: IgG1 heterodimer, mutation in the GpH7-B3 chain only; also called He Ab
B2: GpH7-A5/GpH7-B3 variant (L234_02A)/GpL16-k0 (antibody, human IgG1, kappa)
heavy 1: not shown
heavy 2: not shown
light: B1 light
notes: as for B1
B3: GpH7-A5/GpH7-B3 variant (L234_06M)/GpL16-k0 (antibody, human IgG1, kappa)
heavy 1: not shown
heavy 2: not shown
light: B1 light
notes: as for B1
B4: GpH7-A5/GpH7-B3 variant (L234_13S)/GpL16-k0 (antibody, human IgG1, kappa)
heavy 1: not shown
heavy 2: not shown
light: B1 light
notes: as for B1
B5: GpH7-A5/GpH7-B3 variant (G237_03V)/GpL16-k0 (antibody, human IgG1, kappa)
heavy 1: not shown
heavy 2: not shown
light: B1 light
notes: as for B1
B6: GpH7-A5/GpH7-B3 variant (L235_11K)/GpL16-k0 (antibody, human IgG1, kappa)
heavy 1: not shown
heavy 2: not shown
light: B1 light
notes: as for B1
B7: GpH7-A5/GpH7-B3 variant (L235_05P)/GpL16-k0 (antibody, human IgG1, kappa)
heavy 1: not shown
heavy 2: not shown
light: B1 light
notes: as for B1
B8: GpH7-A5/GpH7-B3 variant (L234_14T)/GpL16-k0 (antibody, human IgG1, kappa)
heavy 1: not shown
heavy 2: not shown
light: B1 light
notes: as for B1
B9: GpH7-A5/GpH7-B3 variant (L234_01G)/GpL16-k0 (antibody, human IgG1, kappa)
heavy 1: not shown
heavy 2: not shown
light: B1 light
notes: as for B1
B10: GpH7-A5/GpH7-B3 variant (L234_07I)/GpL16-k0 (antibody, human IgG1, kappa)
heavy 1: not shown
heavy 2: not shown
light: B1 light
notes: as for B1
B11: GpH7-A5/GpH7-B3 variant (L235_06M)/GpL16-k0 (antibody, human IgG1, kappa)
heavy 1: not shown
heavy 2: not shown
light: B1 light
notes: as for B1
B12: GpH7-A5/GpH7-B3 variant (L234_12R)/GpL16-k0 (antibody, human IgG1, kappa)
heavy 1: not shown
heavy 2: not shown
light: B1 light
notes: as for B1
B13: GpH7-A5/GpH7-B3 variant (L235_19Q)/GpL16-k0 (antibody, human IgG1, kappa)
heavy 1: not shown
heavy 2: not shown
light: B1 light
notes: as for B1
B14: GpH7-A5/GpH7-B3 variant (L235_02A)/GpL16-k0 (antibody, human IgG1, kappa)
heavy 1: not shown
heavy 2: not shown
light: B1 light
notes: as for B1
B15: GpH7-A5/GpH7-B3 variant (L235_03V)/GpL16-k0 (antibody, human IgG1, kappa)
heavy 1: not shown
heavy 2: not shown
light: B1 light
notes: as for B1
B16: GpH7-A5/GpH7-B3 variant (H268_07I)/GpL16-k0 (antibody, human IgG1, kappa)
heavy 1: not shown
heavy 2: not shown
light: B1 light
notes: as for B1
B17: GpH7-A5/GpH7-B3 variant (P271_03V)/GpL16-k0 (antibody, human IgG1, kappa)
heavy 1: not shown
heavy 2: not shown
light: B1 light
notes: as for B1
B18: GpH7-A5/GpH7-B3 variant (L234_05P)/GpL16-k0 (antibody, human IgG1, kappa)
heavy 1: not shown
heavy 2: not shown
light: B1 light
notes: as for B1
B19: GpH7-A5/GpH7-B3 variant (L235_01G)/GpL16-k0 (antibody, human IgG1, kappa)
heavy 1: not shown
heavy 2: not shown
light: B1 light
notes: as for B1
B20: GpH7-A5/GpH7-B3 variant (L234_11K)/GpL16-k0 (antibody, human IgG1, kappa)
heavy 1: not shown
heavy 2: not shown
light: B1 light
notes: as for B1
B21: GpH7-A5/GpH7-B3 variant (S239_19Q)/GpL16-k0 (antibody, human IgG1, kappa)
heavy 1: not shown
heavy 2: not shown
light: B1 light
notes: as for B1
B22: GpH7-A5/GpH7-B3 variant (H268_06M)/GpL16-k0 (antibody, human IgG1, kappa)
heavy 1: not shown
heavy 2: not shown
light: B1 light
notes: as for B1

Molecular target: T2, FcγRIa (human, UniProt P12314 16-292)
T2 construct: extracellular domain; also called FcgRI; 1a
T2 sequence (P12314 16-292): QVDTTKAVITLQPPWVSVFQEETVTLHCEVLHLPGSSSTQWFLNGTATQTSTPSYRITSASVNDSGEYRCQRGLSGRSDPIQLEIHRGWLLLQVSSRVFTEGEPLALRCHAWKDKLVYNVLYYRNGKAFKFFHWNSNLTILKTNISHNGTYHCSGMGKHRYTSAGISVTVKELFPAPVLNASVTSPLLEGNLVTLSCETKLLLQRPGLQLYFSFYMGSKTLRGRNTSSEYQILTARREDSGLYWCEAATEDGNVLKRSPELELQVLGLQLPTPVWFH
Test: SPR, captured antibody; relative to GpH7-A5/GpH7-B3/GpL16-k0

He/Con_1a	Binder
100 relative, HeCon Ab = 100	B1
97.5 relative, HeCon Ab = 100	B2
104 relative, HeCon Ab = 100	B3
96.9 relative, HeCon Ab = 100	B4
78.5 relative, HeCon Ab = 100	B5
79.9 relative, HeCon Ab = 100	B6
94.7 relative, HeCon Ab = 100	B7
98.6 relative, HeCon Ab = 100	B8
96.1 relative, HeCon Ab = 100	B9
103 relative, HeCon Ab = 100	B10
98 relative, HeCon Ab = 100	B11
91.8 relative, HeCon Ab = 100	B12
94 relative, HeCon Ab = 100	B13
92.2 relative, HeCon Ab = 100	B14
94.7 relative, HeCon Ab = 100	B15
108 relative, HeCon Ab = 100	B16
102 relative, HeCon Ab = 100	B17
99.9 relative, HeCon Ab = 100	B18
87.2 relative, HeCon Ab = 100	B19
91.8 relative, HeCon Ab = 100	B20
101 relative, HeCon Ab = 100	B21
105 relative, HeCon Ab = 100	B22

Molecular target: T1, FcγRIIb
Test: as above

He/Con_2b	Binder
89.2 relative, HeCon Ab = 100	B1
64.9 relative, HeCon Ab = 100	B2
78.5 relative, HeCon Ab = 100	B3
59.3 relative, HeCon Ab = 100	B4
61.4 relative, HeCon Ab = 100	B5
6.3 relative, HeCon Ab = 100	B6
54.7 relative, HeCon Ab = 100	B7
62.5 relative, HeCon Ab = 100	B8
50.7 relative, HeCon Ab = 100	B9
80.9 relative, HeCon Ab = 100	B10
81 relative, HeCon Ab = 100	B11
18.9 relative, HeCon Ab = 100	B12
42.6 relative, HeCon Ab = 100	B13
63 relative, HeCon Ab = 100	B14
66.4 relative, HeCon Ab = 100	B15
88.9 relative, HeCon Ab = 100	B16
74.8 relative, HeCon Ab = 100	B17
72.9 relative, HeCon Ab = 100	B18
35.4 relative, HeCon Ab = 100	B19
16.2 relative, HeCon Ab = 100	B20
86.1 relative, HeCon Ab = 100	B21
65.7 relative, HeCon Ab = 100	B22
